Test results taken from paper PMC9482650, “Quantitative fragmentomics allow affinity mapping of interactomes” (Nature Communications, 2022).
Residue numbers refer to the chain shown, from its start.

T1: SNTB1, Q13884
T1 sequence (Q13884 107-205, limits assumed, looked up): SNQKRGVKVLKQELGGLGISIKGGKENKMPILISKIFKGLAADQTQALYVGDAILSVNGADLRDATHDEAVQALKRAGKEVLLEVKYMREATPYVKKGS

T2: GRIP1_5, Q9Y3R0
T2 sequence (Q9Y3R0 568-668, limits assumed, looked up): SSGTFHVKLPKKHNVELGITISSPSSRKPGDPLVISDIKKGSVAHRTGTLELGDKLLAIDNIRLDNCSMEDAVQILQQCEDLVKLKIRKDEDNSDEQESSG

T3: APBA2_2, Q99767
T3 sequence (Q99767 654-744, limits assumed, looked up): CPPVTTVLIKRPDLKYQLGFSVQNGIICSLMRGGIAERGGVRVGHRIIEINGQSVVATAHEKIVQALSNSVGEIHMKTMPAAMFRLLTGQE

T4: APBA1_2, Q02410
T4 sequence (Q02410 742-832, limits assumed, looked up): T3 sequence (Q99767 654-744, limits assumed, looked up) with K10R, K15R, A59P, Q65H, A66I, S70A, F84Y, G89A

T5: APBA1_1, Q02410
T5 sequence (Q02410 651-752, limits assumed, looked up): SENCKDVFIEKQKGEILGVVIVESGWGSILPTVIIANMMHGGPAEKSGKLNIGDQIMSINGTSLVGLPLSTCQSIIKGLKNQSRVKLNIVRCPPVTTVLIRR

T6: RAPGEF6, Q8TEU7
T6 sequence (Q8TEU7 525-625, limits assumed, looked up): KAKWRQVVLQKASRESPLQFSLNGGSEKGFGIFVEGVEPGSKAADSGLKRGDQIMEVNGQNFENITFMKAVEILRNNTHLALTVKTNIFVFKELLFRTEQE

T7: NHERF3_1, Q5T2W1
T7 sequence (Q5T2W1 4-100, limits assumed, looked up): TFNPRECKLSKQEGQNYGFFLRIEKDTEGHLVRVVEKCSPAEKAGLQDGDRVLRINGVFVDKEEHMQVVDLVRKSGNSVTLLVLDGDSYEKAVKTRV

T8: GRIP1_4, Q9Y3R0
T8 sequence (Q9Y3R0 467-571, limits assumed, looked up): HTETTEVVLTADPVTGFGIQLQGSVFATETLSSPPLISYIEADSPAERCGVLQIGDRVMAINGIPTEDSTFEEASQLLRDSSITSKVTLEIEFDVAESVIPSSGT

T9: FRMPD1, Q5SYB0
T9 sequence (Q5SYB0 52-145, limits assumed, looked up): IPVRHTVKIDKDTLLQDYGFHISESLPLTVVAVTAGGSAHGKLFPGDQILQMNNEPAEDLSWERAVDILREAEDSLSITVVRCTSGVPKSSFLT

T10: NHERF3_3, Q5T2W1
T10 sequence (Q5T2W1 238-333, limits assumed, looked up): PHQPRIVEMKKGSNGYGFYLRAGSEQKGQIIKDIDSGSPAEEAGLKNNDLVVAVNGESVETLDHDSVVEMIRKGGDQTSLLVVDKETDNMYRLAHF

T11: HTRA4, P83105
T11 sequence (P83105 378-476, limits assumed, looked up): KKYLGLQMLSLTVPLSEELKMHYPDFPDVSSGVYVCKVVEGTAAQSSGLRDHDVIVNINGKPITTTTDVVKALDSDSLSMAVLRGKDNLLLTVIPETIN

T12: LIN7B, Q9HAP6
T12 sequence (Q9HAP6 88-185, limits assumed, looked up): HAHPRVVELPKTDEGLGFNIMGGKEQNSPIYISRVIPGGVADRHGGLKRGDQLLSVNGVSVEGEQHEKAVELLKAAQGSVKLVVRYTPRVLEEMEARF


Columns and labels:
Experiment in all cases: holdup assay
Parameters in all cases: key: below the threshold = too weak to quantify, mostly under pKd 3.1 to 4
Settings in all cases: plain residues with an end cap or a label only (N-terminal biotin on a linker: ado-ado)
GORASP2, Q9H8Y8 = target: GORASP2, Q9H8Y8
LDB3, O75112 = target: LDB3, O75112
Chain of LDB3, O75112 (O75112 1-94): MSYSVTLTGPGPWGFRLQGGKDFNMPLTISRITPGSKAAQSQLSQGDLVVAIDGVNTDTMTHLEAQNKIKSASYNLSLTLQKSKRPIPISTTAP

GOPC, Q9HD26 = target: GOPC, Q9HD26
DLG4_1, P78352 = target: DLG4_1, P78352
Chain of DLG4_1, P78352 (P78352 62-152): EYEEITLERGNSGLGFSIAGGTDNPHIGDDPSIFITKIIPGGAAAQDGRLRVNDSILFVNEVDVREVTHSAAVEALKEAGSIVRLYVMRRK

SNTB1, Q13884 = target: T1, SNTB1, Q13884
GRIP2_6, Q9C0E4 = target: GRIP2_6, Q9C0E4
Chain of GRIP2_6, Q9C0E4 (Q9C0E4 648-740): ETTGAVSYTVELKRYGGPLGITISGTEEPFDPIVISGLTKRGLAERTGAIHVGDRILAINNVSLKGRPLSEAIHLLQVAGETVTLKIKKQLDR

Inadl_6, Q8NI35 = target: Inadl_6, Q8NI35
Chain of Inadl_6, Q8NI35 (Q8NI35 1058-1167): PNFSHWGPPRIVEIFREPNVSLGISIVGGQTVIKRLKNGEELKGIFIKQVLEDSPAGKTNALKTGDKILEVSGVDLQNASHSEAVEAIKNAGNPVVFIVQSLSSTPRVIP

FRMPD3, Q5JV73 = target: FRMPD3, Q5JV73
Chain of FRMPD3, Q5JV73 (Q5JV73 12-100): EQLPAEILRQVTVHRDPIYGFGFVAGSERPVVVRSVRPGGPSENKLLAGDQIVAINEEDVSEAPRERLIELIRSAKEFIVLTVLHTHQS

GRIP1_5, Q9Y3R0 = target: T2, GRIP1_5, Q9Y3R0
APBA2_2, Q99767 = target: T3, APBA2_2, Q99767
LAP2, Q96RT1 = target: LAP2, Q96RT1
Chain of LAP2, Q96RT1 (Q96RT1 other isoform, or with tags, fused parts or gaps): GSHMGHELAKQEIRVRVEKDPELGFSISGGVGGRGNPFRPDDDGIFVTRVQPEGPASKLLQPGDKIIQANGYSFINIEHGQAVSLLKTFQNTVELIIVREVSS

APBA1_2, Q02410 = target: T4, APBA1_2, Q02410
APBA1_1, Q02410 = target: T5, APBA1_1, Q02410
GRASP, Q7Z6J2 = target: GRASP, Q7Z6J2
Chain of GRASP, Q7Z6J2 (Q7Z6J2 96-193): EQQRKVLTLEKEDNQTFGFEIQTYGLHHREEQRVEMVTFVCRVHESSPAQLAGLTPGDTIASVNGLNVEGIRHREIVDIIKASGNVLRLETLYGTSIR

RAPGEF6, Q8TEU7 = target: T6, RAPGEF6, Q8TEU7
NHERF3_1, Q5T2W1 = target: T7, NHERF3_1, Q5T2W1
GRIP1_4, Q9Y3R0 = target: T8, GRIP1_4, Q9Y3R0
FRMPD1, Q5SYB0 = target: T9, FRMPD1, Q5SYB0
MAGI2_2, Q86UL8 = target: MAGI2_2, Q86UL8
Chain of MAGI2_2, Q86UL8 (Q86UL8 410-522): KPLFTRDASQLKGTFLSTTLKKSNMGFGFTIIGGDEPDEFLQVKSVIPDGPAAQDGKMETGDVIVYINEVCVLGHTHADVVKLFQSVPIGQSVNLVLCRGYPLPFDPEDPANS

PARD3_3, Q8TEW0 = target: PARD3_3, Q8TEW0
Chain of PARD3_3, Q8TEW0 (Q8TEW0 582-685): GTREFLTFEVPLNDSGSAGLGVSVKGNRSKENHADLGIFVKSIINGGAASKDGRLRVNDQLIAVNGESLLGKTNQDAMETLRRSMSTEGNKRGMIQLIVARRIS

NHERF3_3, Q5T2W1 = target: T10, NHERF3_3, Q5T2W1
HTRA4, P83105 = target: T11, HTRA4, P83105
DLG1_1, Q12959 = target: DLG1_1, Q12959
LIN7B, Q9HAP6 = target: T12, LIN7B, Q9HAP6
DLG2_3, Q15700 = target: DLG2_3, Q15700
MAST1, Q9Y2H9 = target: MAST1, Q9Y2H9
Chain of MAST1, Q9Y2H9 (Q9Y2H9 962-1065): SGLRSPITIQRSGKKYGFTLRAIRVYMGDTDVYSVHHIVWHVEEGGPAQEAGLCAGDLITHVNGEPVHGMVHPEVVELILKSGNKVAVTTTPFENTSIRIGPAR

Row | pKd (LDB3, O75112) | pKd (GOPC, Q9HD26) | pKd (DLG4_1, P78352) | pKd (SNTB1, Q13884) | pKd (GRIP2_6, Q9C0E4) | pKd (Inadl_6, Q8NI35) | pKd (FRMPD3, Q5JV73) | pKd (APBA2_2, Q99767) | pKd (LAP2, Q96RT1) | pKd (APBA1_2, Q02410) | pKd (APBA1_1, Q02410) | pKd (GRASP, Q7Z6J2) | pKd (RAPGEF6, Q8TEU7) | pKd (NHERF3_1, Q5T2W1) | pKd (GRIP1_4, Q9Y3R0) | pKd (FRMPD1, Q5SYB0) | pKd (MAGI2_2, Q86UL8) | pKd (PARD3_3, Q8TEW0) | pKd (NHERF3_3, Q5T2W1) | pKd (HTRA4, P83105) | Binder | further results
1 | below the threshold | below the threshold | below the threshold | below the threshold | below the threshold | below the threshold | below the threshold | below the threshold | below the threshold | below the threshold | below the threshold | below the threshold | below the threshold | 3.91 | below the threshold | below the threshold | below the threshold | below the threshold | below the threshold | below the threshold | KSTTRSSSSC [NDE1, Q9NXR1;Q9NXR1-2] | pKd (GORASP2, Q9H8Y8): below the threshold; pKd (GRIP1_5, Q9Y3R0): below the threshold; pKd (DLG1_1, Q12959): below the threshold
2 | below the threshold | 3.81 | below the threshold | 4.24 | below the threshold | 3.57 | below the threshold | below the threshold | below the threshold | 4.16 | below the threshold | 4 | 3.85 | 5.82 | below the threshold | below the threshold | 3.71 | below the threshold | 3.8 | below the threshold | SKSLERATQL [COMMD3, Q9UBI1] | pKd (GORASP2, Q9H8Y8): 3.84; pKd (GRIP1_5, Q9Y3R0): below the threshold; pKd (LIN7B, Q9HAP6): 3.87; pKd (DLG2_3, Q15700): 3.71; pKd (DLG1_1, Q12959): 3.55; pKd (MAST1, Q9Y2H9): 4.69
3 | below the threshold | below the threshold | below the threshold | below the threshold | below the threshold | below the threshold | below the threshold | below the threshold | below the threshold | 3.82 | below the threshold | 3.47 | below the threshold | 3.9 | below the threshold | below the threshold | below the threshold | below the threshold | below the threshold | 3.92 | LRYARPADAL [PPP1R3G, B7ZBB8] | pKd (GORASP2, Q9H8Y8): below the threshold; pKd (GRIP1_5, Q9Y3R0): below the threshold; pKd (LIN7B, Q9HAP6): below the threshold; pKd (DLG2_3, Q15700): below the threshold; pKd (DLG1_1, Q12959): below the threshold; pKd (MAST1, Q9Y2H9): 3.73
4 | below the threshold | below the threshold | below the threshold | below the threshold | below the threshold | below the threshold | below the threshold | below the threshold | 3.93 | below the threshold | below the threshold | below the threshold | below the threshold | below the threshold | below the threshold | below the threshold | below the threshold | 3.48 | below the threshold | 3.92 | GDHLDRRVVL [VAC14, Q08AM6] | pKd (GORASP2, Q9H8Y8): 3.87; pKd (GRIP1_5, Q9Y3R0): below the threshold; pKd (LIN7B, Q9HAP6): below the threshold; pKd (DLG2_3, Q15700): below the threshold; pKd (DLG1_1, Q12959): below the threshold; pKd (MAST1, Q9Y2H9): 4.17
5 | below the threshold | below the threshold | below the threshold | below the threshold | below the threshold | below the threshold | below the threshold | below the threshold | below the threshold | below the threshold | below the threshold | below the threshold | below the threshold | below the threshold | below the threshold | below the threshold | below the threshold | below the threshold | below the threshold | below the threshold | EYRKDNKVAA [LSM14A, Q8ND56;Q8ND56-2] | pKd (DLG1_1, Q12959): below the threshold; pKd (MAST1, Q9Y2H9): below the threshold
6 | below the threshold | 3.96 | 4.94 | 5.07 | 3.55 | 4.01 | below the threshold | below the threshold | 4.56 | 3.65 | below the threshold | 4.12 | below the threshold | 3.93 | below the threshold | below the threshold | 3.76 | 4.19 | below the threshold | below the threshold | QELLEYETTV [XKR7, Q5GH72] | pKd (GORASP2, Q9H8Y8): 3.8; pKd (GRIP1_5, Q9Y3R0): below the threshold; pKd (LIN7B, Q9HAP6): 4.5; pKd (DLG2_3, Q15700): 3.55; pKd (DLG1_1, Q12959): 4.96; pKd (MAST1, Q9Y2H9): 4.97
